This assay addresses I53-dn5 B. Nature of the assay: in vitro nanoparticle assembly; SEC on Superose 6, SDS-PAGE.

B1: I53-dn5 A.2 (A_LF2_W16G_LS) (designed binder)
chain: MGKYDGSKLRIGILHARGNAEIILELVLGALKRLQEFGVKRENIIIETVPGSFELPYGSKLFVEKQKRLGKPLDAIIPIGVLIRGSTAHFDYIADSTTHQLMKLNFELGIPVIFGVLTTESDEQAEERAGTKAGNHGEDWGAAAVEMATKFN
Take B1: the binding result is on record as “binds”.

The record behind these values is patent US20220072120A1 (University of Washington, published 2022).
